Test results published in PMC10748205.

What was measured:
Assay in all cases: two-hybrid
[1] = molecular target: Gt-1 ORF3 KISS (hepatitis E virus genotype 1 (Sar-55))
[2] = molecular target: Gt-3 ORF3 KISS (hepatitis E virus genotype 3 (Kernow-C1 p6))
[3] = molecular target: Gt-1 ORF3 MAPPIT (hepatitis E virus genotype 1 (Sar-55))

B1: SHANK-Associated RH Domain Interactor (natural protein)
chain: MAPPAGGAAAAASDLGSAAVLLAVHAAVRPLGAGPDAEAQLRRLQLSADPERPGRFRLELLGAGPGAVNLEWPLESVSYTIRGPTQHELQPPPGGPGTLSLHFLNPQEAQRWAVLVRGATVEGQNGSKSNSPPALGPEACPVSLPSPPEASTLKGPPPEADLPRSPGNLTEREELAGSLARAIAGGDEKGAAQVAAVLAQHRVALSVQLQEACFPPGPIRLQVTLEDAASAASAASSAHVALQVHPHCTVAALQEQVFSELGFPPAVQRWVIGRCLCVPERSLASYGVRQDGDPAFLYLLSAPREAPATGPSPQHPQKMDGELGRLFPPSLGLPPGPQPAASSLPSPLQPSWSCPSCTFINAPDRPGCEMCSTQRPCTWDPLAAAST
For B1, which BP/BIP [1] is on record?
Its BP/BIP is 42.2.

And the BP/PIB [1]?
Its BP/PIB is 429.

And the Value BP (bait-prey luciferase value) [1]?
Its Value BP (bait-prey luciferase value) is 796000.

And the BP/BIP [2]?
The BP/BIP was 25.4.

What about the BP/PIB [2] of the same binder?
The BP/PIB was 101.

And the Value BP (bait-prey luciferase value) [2]?
Its Value BP (bait-prey luciferase value) is 188000.

What about the BP/BIP [3] of the same binder?
The BP/BIP was 61.2.

And the BP/PIB [3]?
Its BP/PIB is 69.9.

What about the Value BP (bait-prey fold induction) [3] of the same binder?
Its Value BP (bait-prey fold induction) is 82.1.
